Source: patent US7576177B2, “Hsp peptides and analogs for modulation of immune responses via antigen presenting cells” (Andromeda Biotech Ltd., priority 2002, dated 2009)

What was measured:
[1] = tested on: peripheral blood mononuclear cells cultured with GM-CSF and IL4 (dendritic cells); test: Peripheral blood derived dendritic cells: secreted cytokines (IP-10, IL-8) and cell surface antigens (CD83, CD86); type: cell-based, human; settings: overnight
Protocol: The effect of the compositions of the present invention on peripheral blood derived dendritic cells, was tested according to a protocol described by Re, F. and Strominger, J. L. 2001. Toll-like receptor 2 (Tlr2) and Tlr4 differentially activate human dendritic cells. (J Biol Chem 276: 37692-9). According to this method immature dendritic cells derived from human peripheral blood are used. The outcome after incubating the cells with tested molecules is different if the stimulation is through the Toll 4 receptor or the Toll 2 receptor. According to the authors, Toll 2 signaling by stimulation with zymosan is associated with a Th2 kind of response (exemplified by IL-8) and Toll 4 signaling, such as obtained by LPS stimulation (exemplified by IP-10), with a Th1 type of response. The compositions of the present invention were tested using a similar assay system in order to check which stimulation type they induce. […] The increase in CD86 expression after exposure of APCs to Hsps or Hsp derived peptides is important since CD86 (B7.2) is an essential component of the immunological synapse formed between T cells and APC. This synapse consists of CD80 and CD86 on the side of the APC and CD28 and CD40 on the side of the T cell. T cell recognition of peptide on APC without the concurrent expression of CD86 gives rise to anergy instead of a T cell response. Therefore in order to produce a response all components must be present.
The assay was based on the protocol described by Re, F. and Strominger, J. L. 2001. Toll-like receptor 2 (Tlr2) and Tlr4 differentially activate human dendritic cells. (J. Biol Chem 276: 37692-9).
Peripheral blood mononuclear cells were prepared from leucocytes from blood lots obtained from the blood bank. The cells were plated at 10^8 cells/10 ml/Petri dish in RPMI medium including 10% FCS and allowed to adhere at 37° C. for 2 hours. At the end of this time, the non-adherent cells were washed off the plates with PBS and the adherent cells resuspended in fresh medium as before. […]

[2] = tested on: BALB/c DO.11.10 bone marrow cells cultured for dendritic cells, cocultured with DO.11.10 T cells; test: Education of mouse dendritic cells and stimulation of T-cells, cytokine content of supernatant; type: cell-based; settings: 0.3 nM Ova peptide
Protocol: Whelan et al. (J. Immunol 164, 6453-6460, 2000) addressed the problem in mice by an experiment in which mouse bone marrow cells were grown for 6 days in culture with GM-CSF to give immature dendritic cells. These dendritic cells were then incubated overnight with LPS (known to drive cells to DC1) or with a nematode antigen. The reason for the choice of nematode antigen was that injection of this antigen in vivo gives rise to a Th2 response in animals. After this so-called “education” of the dendritic cells, they were washed and subsequently incubated with naive T cells in the presence of antigenic stimulus. The experiment was possible because of the use of transgenic mice in which all the T cells respond to the same peptide (OVA323-339) which absolves the system from any question of bias of the T cell response at the level of the T cells. Any bias should be a consequence of the “education” of the dendritic cells. After three days of incubation the cytokine responses produced by the T cells, were measured by ELISA. […] In contrast, nematode antigen incubation gave rise to more IL-4 (Th2) than did controls while the LPS incubation inhibited the IL4 response. Therefore, the nematode antigen was said to drive cells to DC2. A similar method was used for testing the compounds of the present invention: • 1. Bone marrow cells were extracted from the leg bones of DO.11.10 mice transgenic for the TcR. All cells from these mice respond to the OVA peptide ([…]). • 2. Bone marrow cells were plated at 10^6 cells/ml in 100 mm diameter tissue culture petri dishes in Iscove's medium supplemented with 10% FCS, […], 1 mM sodium pyruvate, penicillin/streptomycin (according to manufacturer's recommendations), non-essential amino acids, 50 μM β-mercaptoethanol and 10 ng/ml mGM-CSF. • 3. After 4 days, the medium was carefully removed and replaced with fresh medium • 4. After 6 days, the non-adherent cells were harvested and used as immature dendritic cells • 5. The immature dendritic cells are plated at 1×10^6 cells/ml, 1 ml/well in 24 well plates in the above medium with various reagents added at various concentrations and incubated overnight. This is the stage in which the dendritic cells are “educated” • 6. The next day the cells were harvested and washed 3 times then resuspended at 5×10^4 cells/ml in 1 ml of the above medium but without the addition of GM-CSF to be cocultured with T cells • 7. […] 5×10^5 T cells were cultured with the dendritic cells from step 6 in the presence of various concentrations of the OVA peptide (0, 0.3 nM, 3 nM and 30 nM). • 9. After 3 days PMA (50 ng/ml) and ionomycin (500 ng/ml) were added to further stimulate the cells. • 10. The next day the cell supernatants were collected and assayed for cytokine content (Interferon γ, IL4, IL-10 and IL-12).
The compound was tested for stimulation of DO.11.10 bone marrow cells according to the assay described above (Production and education of mouse dendritic cells and stimulation of T-cells).
BALB/c DO.11.10 bone marrow cells were cultured for dendritic cells and then stimulated with LPS 1 μg/ml, LPS 10 μg/ml, hsp60 3 μg/ml, hsp60 10 μg/ml, p277 5 μg/ml and p277 50 μg/ml. The cells were then transferred to wells with T cells from fresh BALB/c DO.11.10 mice and stimulated with OVA peptide at different concentrations (0, 0.3 nM, 3 nM, 30 nM). Supernatant was collected after 48 hours for assay. 30 μl was taken for IFN, 40 μl for IL4 and IL-10 and 50 μl for IL-12 assays. The results are presented in the following tables, as amount of cytokine (pg/ml), and in FIG. 1.

[3] = tested on: peripheral blood monocytes; test: Peripheral blood monocytes: IP-10 after direct stimulation or preincubation then LPS; type: cell-based, human; settings: peripheral blood monocytes, no preincubation, FIG. 4
Protocol: Peripheral blood mononuclear cells were prepared from leucocytes of blood lots obtained from the blood bank. The cells were plated at a concentration of 4×10^6 cell/ml/well in 24 well tissue culture dishes in medium containing 10% fetal calf serum. The cells were allowed to adhere for 2 hours at 37° C. After this time, non-adherent cells were washed away and the adherent cells incubated in fresh medium containing 10% human AB serum for 6-8 days, changing the medium after 4 days. These culture conditions were reported to give rise to monocytes.
For stimulation the medium was replaced with medium without serum. For preincubation, the cells were exposed overnight to the tested compounds at various concentrations and then LPS was added. The supernatant was collected after a further overnight incubation and tested for various cytokines by ELISA assays.

[4] = dendritic cells educated with 3 μg/ml
[5] = dendritic cells educated with 10 μg/ml

B1: hsp60: heat shock protein 60, mitochondrial chaperone, used as stimulus (protein)
chain: MLRLPTVFRQMRPVSRVLAPHLTRAYAKDVKFGADARALMLQGVDLLADAVAVTMGPKGRTVIIEQGWGSPKVTKDGVTVAKSIDLKDKYKNIGAKLVQDVANNTNEEAGDGTTTATVLARSIAKEGFEKISKGANPVEIRRGVMLAVDAVIAELKKQSKPVTTPEEIAQVATISANGDKEIGNIISDAMKKVGRKGVITVKDGKTLNDELEIIEGMKFDRGYISPYFINTSKGQKCEFQDAYVLLSEKKISSIQSIVPALEIANAHRKPLVIIAEDVDGEALSTLVLNRLKVGLQVVAVKAPGFGDNRKNQLKDMAIATGGAVFGEEGLTLNLEDVQPHDLGKVGEVIVTKDDAMLLKGKGDKAQIEKRIQEIIEQLDVTTSEYEKEKLNERLAKLSDGVAVLKVGGTSDVEVNEKKDRVTDALNATRAAVEEGIVLGGGCALLRCIPALDSLTPANEDQKIGIEIIKRTLKIPAMTIAKNAGVEGSLIVEKIMQSSSEVGYDAMAGDFVNMVEKGIIDPTKVVRTALLDAAGVASLLTTAEVVVTEIPKEEKDPGMGAMGGMGGGMGGGMF
modifications: Homo sapien
notes: heat shock protein 60, mitochondrial chaperone, used as stimulus
B1 showed an IP-10 ([1]; stimulus 10 ng/ml) of 6 pg/mL, an IP-10 ([1]; stimulus 0.1 μg/ml) of 1 pg/mL and an IP-10 ([1]; stimulus 1 μg/ml) of 31 pg/mL. For the same molecule, the “IFN secretion of T cells” value [2, 4] was 447.78 pg/mL, the “IL-4 secretion of T cells” value [2, 4] was 35.96 pg/mL and the “IL-10 secretion of T cells” value [2, 4] was 34.50 pg/mL. The “IL-12 secretion of T cells” value [2, 4] was 95.00 pg/mL, the “IFN secretion of T cells” value [2, 5] was 480.56 pg/mL and the “IL-4 secretion of T cells” value [2, 5] was 24.29 pg/mL. The “IL-10 secretion of T cells” value [2, 5] was 80.18 pg/mL, the “IL-12 secretion of T cells” value [2, 5] was 126.25 pg/mL and the “IP-10 after direct stimulation” value [3] was “did not give rise to IP-10”.
